This note sets out measurements from US20150045540A1 (published 2015).

As a reminder, the EC50 is the concentration at which the effect is half-maximal. Low values mean a more potent agent, high ones a less potent agent.

B1: HC 8/SLC 5 (antibody)
chain 1: GQGTLVTVSSASTKGPSVQPVLHQPPAMSSALGTTIRLTCTLRNDHDIGVYSVYWYQQRPGHPPRFLLRYFSQSDKSQGPQVPPRFSGSKDVARNRGYLSISELQPEDEAMYYCAMGARSRCWPRGFQSKHNSVTHVFGSGTQLTVLSQPKATPSVTLFPPSSEELQANKATLVCLMNDFYPGILTVTWKADGTPITQGVEMTTPSKQSNNKYAASSYLSLTPEQWRSRRSYSCQVMHEGSTVEKTVAPAECS
chain 2: MSWAPVLLMLFVYCTGCGPQPVLHQPPAMSSALGTTIRLTCTLRNDHDIGVYSVYWYQQRPGHPPRFLLRYFSQSDKSQGPQVPPRFSGSKDVARNRGYLSISVTHVFGSGTQLTVLSQPKAQVQLVQ
B2: HC 8/SLC 8 (antibody)
chain 1: B1 chain 1
chain 2: MSWAPVLLMLFVYCTGCGPQPVLHQPPAMSSALGTTIRLTCTLRNDHDIGVYSVYWYQQRPGHPPRFLLRYFSQSDKSQGPQVPPRFSGSKDVARNRGYLSISVTHVFGSGTQLTVLSQPKATPSQVQLVQ
B3: HC 8/SLC 4 (antibody)
chain 1: B1 chain 1
chain 2: MSWAPVLLMLFVYCTGCGPQPVLHQPPAMSSALGTTIRLTCTLRNDHDIGVYSVYWYQQRPGHPPRFLLRYFSQSDKSQGPQVPPRFSGSKDVARNRGYLSISVTHVFGSGTQLTVLSQPKQVQLVQ
B4: HC 8/SLC 9 (antibody)
chain 1: B1 chain 1
chain 2: MSWAPVLLMLFVYCTGCGPQPVLHQPPAMSSALGTTIRLTCTLRNDHDIGVYSVYWYQQRPGHPPRFLLRYFSQSDKSQGPQVPPRFSGSKDVARNRGYLSISVTHVFGSGTQLTVLSQPKATPSVQVQLVQ
B5: HC 8/SLC 2 (antibody)
chain 1: B1 chain 1
chain 2: MSWAPVLLMLFVYCTGCGPQPVLHQPPAMSSALGTTIRLTCTLRNDHDIGVYSVYWYQQRPGHPPRFLLRYFSQSDKSQGPQVPPRFSGSKDVARNRGYLSISVTHVFGSGTQLTVLSQQVQLVQ
B6: HC 6/SLC 5 (antibody)
chain 1: GQGTLVTVSSASTKGPQPVLHQPPAMSSALGTTIRLTCTLRNDHDIGVYSVYWYQQRPGHPPRFLLRYFSQSDKSQGPQVPPRFSGSKDVARNRGYLSISELQPEDEAMYYCAMGARSRCWPRGFQSKHNSVTHVFGSGTQLTVLSQPKATPSVTLFPPSSEELQANKATLVCLMNDFYPGILTVTWKADGTPITQGVEMTTPSKQSNNKYAASSYLSLTPEQWRSRRSYSCQVMHEGSTVEKTVAPAECS
chain 2: B1 chain 2
B7: HC 3/SLC 6 (antibody)
chain 1: GQGTLVTVSSASTQPVLHQPPAMSSALGTTIRLTCTLRNDHDIGVYSVYWYQQRPGHPPRFLLRYFSQSDKSQGPQVPPRFSGSKDVARNRGYLSISELQPEDEAMYYCAMGARSRCWPRGFQSKHNSVTHVFGSGTQLTVLSQPKATPSVTLFPPSSEELQANKATLVCLMNDFYPGILTVTWKADGTPITQGVEMTTPSKQSNNKYAASSYLSLTPEQWRSRRSYSCQVMHEGSTVEKTVAPAECS
chain 2: MSWAPVLLMLFVYCTGCGPQPVLHQPPAMSSALGTTIRLTCTLRNDHDIGVYSVYWYQQRPGHPPRFLLRYFSQSDKSQGPQVPPRFSGSKDVARNRGYLSISVTHVFGSGTQLTVLSQPKATQVQLVQ
B8: HC 3/SLC 15 (antibody)
chain 1: B7 chain 1
chain 2: MSWAPVLLMLFVYCTGCGPQPVLHQPPAMSSALGTTIRLTCTLRNDHDIGVYSVYWYQQRPGHPPRFLLRYFSQSDKSQGPQVPPRFSGSKDVARNRGYLSISVTHVFGSGTQLTVLSQPKATPSVTGGGGSQVQLVQ
B9: HC 4/SLC 6 (antibody)
chain 1: GQGTLVTVSSASTKQPVLHQPPAMSSALGTTIRLTCTLRNDHDIGVYSVYWYQQRPGHPPRFLLRYFSQSDKSQGPQVPPRFSGSKDVARNRGYLSISELQPEDEAMYYCAMGARSRCWPRGFQSKHNSVTHVFGSGTQLTVLSQPKATPSVTLFPPSSEELQANKATLVCLMNDFYPGILTVTWKADGTPITQGVEMTTPSKQSNNKYAASSYLSLTPEQWRSRRSYSCQVMHEGSTVEKTVAPAECS
chain 2: B7 chain 2
B10: HC 3/SLC 9 (antibody)
chain 1: B7 chain 1
chain 2: B4 chain 2
B11: HC 7/SLC 6 (antibody)
chain 1: GQGTLVTVSSASTKGPSQPVLHQPPAMSSALGTTIRLTCTLRNDHDIGVYSVYWYQQRPGHPPRFLLRYFSQSDKSQGPQVPPRFSGSKDVARNRGYLSISELQPEDEAMYYCAMGARSRCWPRGFQSKHNSVTHVFGSGTQLTVLSQPKATPSVTLFPPSSEELQANKATLVCLMNDFYPGILTVTWKADGTPITQGVEMTTPSKQSNNKYAASSYLSLTPEQWRSRRSYSCQVMHEGSTVEKTVAPAECS
chain 2: B7 chain 2
B12: HC 9/SLC 7 (antibody)
chain 1: GQGTLVTVSSASTKGPSVFQPVLHQPPAMSSALGTTIRLTCTLRNDHDIGVYSVYWYQQRPGHPPRFLLRYFSQSDKSQGPQVPPRFSGSKDVARNRGYLSISELQPEDEAMYYCAMGARSRCWPRGFQSKHNSVTHVFGSGTQLTVLSQPKATPSVTLFPPSSEELQANKATLVCLMNDFYPGILTVTWKADGTPITQGVEMTTPSKQSNNKYAASSYLSLTPEQWRSRRSYSCQVMHEGSTVEKTVAPAECS
chain 2: MSWAPVLLMLFVYCTGCGPQPVLHQPPAMSSALGTTIRLTCTLRNDHDIGVYSVYWYQQRPGHPPRFLLRYFSQSDKSQGPQVPPRFSGSKDVARNRGYLSISVTHVFGSGTQLTVLSQPKATPQVQLVQ
B13: HC 9/SLC 8 (antibody)
chain 1: B12 chain 1
chain 2: B2 chain 2

Hepatocyte Growth Factor (HGF), human, sequence (P14210 32-728): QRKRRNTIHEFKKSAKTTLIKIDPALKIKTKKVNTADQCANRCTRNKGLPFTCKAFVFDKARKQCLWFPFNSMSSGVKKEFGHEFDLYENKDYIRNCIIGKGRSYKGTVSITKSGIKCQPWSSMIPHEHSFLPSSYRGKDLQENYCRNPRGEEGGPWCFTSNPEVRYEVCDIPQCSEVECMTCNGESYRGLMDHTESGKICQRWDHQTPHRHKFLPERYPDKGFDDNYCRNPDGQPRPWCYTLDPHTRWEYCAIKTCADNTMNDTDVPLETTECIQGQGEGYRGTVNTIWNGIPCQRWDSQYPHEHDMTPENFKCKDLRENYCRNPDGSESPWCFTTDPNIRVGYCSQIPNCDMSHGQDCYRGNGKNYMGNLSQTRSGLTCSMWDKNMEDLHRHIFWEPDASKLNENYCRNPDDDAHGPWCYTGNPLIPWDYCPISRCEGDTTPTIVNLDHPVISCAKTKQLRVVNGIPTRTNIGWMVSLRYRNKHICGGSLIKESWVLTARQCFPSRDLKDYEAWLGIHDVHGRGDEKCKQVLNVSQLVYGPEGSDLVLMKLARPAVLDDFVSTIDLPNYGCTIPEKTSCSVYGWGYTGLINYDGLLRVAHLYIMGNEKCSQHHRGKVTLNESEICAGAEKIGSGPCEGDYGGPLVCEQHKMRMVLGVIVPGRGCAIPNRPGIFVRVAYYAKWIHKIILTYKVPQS

One assay deals with T1, Placenta Growth Factor (PlGF), human (human, UniProt P49763 21-149).
T1 chain: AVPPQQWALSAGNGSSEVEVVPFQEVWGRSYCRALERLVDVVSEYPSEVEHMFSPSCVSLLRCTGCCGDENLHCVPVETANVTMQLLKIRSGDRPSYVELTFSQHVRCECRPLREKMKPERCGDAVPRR
Put plainly: ELISA. On the technique in general: In an ELISA, binding on a coated surface is turned into a signal by an enzyme label.
Turning to B1, it took 0.289 nM to reach a half-maximal effect (EC50).

In the case of B2, the midpoint of the response, the EC50, lay at 0.069 nM. Compared with the last molecule, the EC50 is about 4.2-fold lower.

The molecule B3 returned an EC50 of 0.281 nM.

In turn, B4 returned an EC50 of 0.045 nM.

For B5, the concentration giving a half-maximal response (EC50) was found to be 0.227 nM.

As for B6, the EC50 worked out at 0.251 nM.

The molecule B7 registered a half-maximal effective concentration (EC50) of 0.163 nM. This EC50 is about 1.5-fold lower than that of the molecule before.

In turn, B8 displayed an EC50 of 0.057 nM.

The molecule B9 yielded an EC50 of 0.208 nM.

As to B10, a half-maximal response (EC50) required 0.13 nM.

B11 displayed a concentration giving a half-maximal response (EC50) of 0.153 nM.

B12 displayed an EC50 of 0.063 nM.

B13: a half-maximal effect (EC50) was put at 0.063 nM. This lies in the picomolar range.

A further assay addresses Hepatocyte Growth Factor (HGF), human (human, UniProt P14210 32-728). Briefly: ELISA.
B1 returned an EC50 of 0.063 nM.

For the molecule B2, a half-maximal effect (EC50) was put at 0.056 nM.

B3: the response was half-maximal at 0.071 nM (EC50).

In turn, B4 returned a concentration giving a half-maximal response (EC50) of 0.049 nM. The EC50 values of the last two molecules are within 1.5-fold of each other.

Consider B5, for which the concentration giving a half-maximal response (EC50) stood at 0.059 nM.

As for B6, the half-maximal effective concentration (EC50) was found to be 0.066 nM.

As for B7, the response was half-maximal at 0.057 nM (EC50).

B8 came in with an EC50 of around 0.041 nM.

Molecule B9 returned an EC50 of 0.063 nM.

Regarding B10, the EC50 was 0.049 nM.

Consider B11, for which a half-maximal response (EC50) required 0.062 nM.

For B12, the EC50 was found to be 0.059 nM.

B13 yielded an EC50 of 0.061 nM.
